For series [1], the target named is SARS-CoV-2 spike RBD (SARS-CoV-2, UniProt P0DTC2 319-591). Put plainly: flow cytometry. (In general: Flow cytometry measures light scatter and fluorescence of single cells or particles in a stream.)
Series [2] deals with T1, ACE2 extracellular domain (human, UniProt Q9BYF1 19-615). Put plainly: flow cytometry.
In series [3] the target is T2, SARS-CoV spike extracellular domain (CoV-S) (SARS-CoV, UniProt P59594 14-1190). Put plainly: flow cytometry.
The target in series [4] is T2, SARS-CoV spike extracellular domain …. Put plainly: pull-down.
Series [5] deals with T1, ACE2 extracellular domain. In words: pull-down.
Series [6] concerns the target Nek7 (human, UniProt Q8TDX7 1-302). In words: pull-down.

T1 sequence (Q9BYF1 19-615): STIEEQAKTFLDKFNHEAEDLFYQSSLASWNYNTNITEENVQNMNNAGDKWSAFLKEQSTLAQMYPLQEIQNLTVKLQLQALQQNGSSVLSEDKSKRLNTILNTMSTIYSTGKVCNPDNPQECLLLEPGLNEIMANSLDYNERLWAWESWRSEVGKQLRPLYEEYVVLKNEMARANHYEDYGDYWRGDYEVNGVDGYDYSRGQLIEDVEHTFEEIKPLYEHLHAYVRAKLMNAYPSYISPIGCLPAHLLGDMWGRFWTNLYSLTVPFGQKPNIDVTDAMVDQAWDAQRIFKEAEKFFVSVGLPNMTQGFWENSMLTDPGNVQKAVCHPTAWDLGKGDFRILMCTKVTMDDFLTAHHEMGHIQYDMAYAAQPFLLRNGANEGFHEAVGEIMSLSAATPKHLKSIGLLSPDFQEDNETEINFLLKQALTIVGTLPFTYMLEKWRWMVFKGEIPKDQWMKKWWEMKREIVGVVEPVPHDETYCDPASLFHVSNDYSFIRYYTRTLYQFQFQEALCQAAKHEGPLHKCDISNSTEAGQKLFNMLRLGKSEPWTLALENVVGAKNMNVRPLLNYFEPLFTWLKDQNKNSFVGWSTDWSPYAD
Nek7, sequence (Q8TDX7 whole entry): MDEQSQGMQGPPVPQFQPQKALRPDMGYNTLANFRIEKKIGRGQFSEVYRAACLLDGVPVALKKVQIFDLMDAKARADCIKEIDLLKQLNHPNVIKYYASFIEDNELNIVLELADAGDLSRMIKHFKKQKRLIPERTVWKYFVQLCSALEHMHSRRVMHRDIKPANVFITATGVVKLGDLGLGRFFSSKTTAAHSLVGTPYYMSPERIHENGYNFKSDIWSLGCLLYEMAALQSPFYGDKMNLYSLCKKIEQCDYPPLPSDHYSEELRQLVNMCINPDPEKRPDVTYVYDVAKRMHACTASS

B1: RBD4 (ssDNA)
DNA: GGGAGAGGAGGGAGATAGATATCAATGGGTGGGAGGGAGGGGGGCTTTATTCCGGTGTTTTTTCGTTTCGTGGATGCCACAGGAC
For the molecule B1, the binding result in series [1] is “binds”.

B2: SP5 (ssDNA)
DNA: GGGAGAGGAGGGAGATAGATATCAACCATGGTAGGTATTGCTTGGTAGGGATAGTGGGCTTGATGTTTCGTGGATGCCACAGGAC
For B2, the binding result in series [2], in series [3] and in series [1] was “no binding” each time.

B3: SP6 (ssDNA)
DNA: GGGAGAGGAGGGAGATAGATATCAACCCATGGTAGGTATTGCTTGGTAGGGATAGTGGGCTTGATGTTTCGTGGATGCCACAGGAC
B3: the binding result in series [2], in series [3] and in series [1] was “no binding” each time.

B4: SP6 biotin (ssDNA)
DNA: B3 DNA
Regarding B4, the binding result in series [4], in series [5] and in series [6] was “no binding” throughout.

B5: RBD3 (ssDNA)
DNA: GGGAGAGGAGGGAGATAGATATCAATGGGTGTTTTGGTTGTAGGGTTTAGGTTTAGGGTACTCTTTTTCGTGGATGCCACAGGAC
Take B5: the binding result in series [1] is recorded as “binds”.

B6: RBD1 (ssDNA)
DNA: GGGAGAGGAGGGAGATAGATATCAAGTTAGGTTCTGGATTAGGTTAGGGTTGTGTTGTTGTTAGGTTTCGTGGATGCCACAGGAC
On to B6, for which, in series [1], the binding result is given as “binds”.

B7: SP7 (ssDNA)
DNA: GGGAGAGGAGGGAGATAGATATCAAAGGAGGGTAGGTAGTGCTTGGTAGGGAAACTCCGCCGATTTTTCGTGGATGCCACAGGAC
For B7, the binding result in series [2], in series [3] and in series [1] was “no binding” in each case.

B8: RBD2 (ssDNA)
DNA: GGGAGAGGAGGGAGATAGATATCAATACAGTTGGTTGTAGGTTTTTGTTAGGTTAGTTTAGGGTTTTTCGTGGATGCCACAGGAC
In the case of B8, the binding result in series [1] is recorded as “binds”.

Values taken from article PMC8250900.
